± gives the uncertainty stated by the source.

The data set is described as follows: abundance fitness (aPCA) (normalised: wild type 0, dead -1); higher = more abundant; growth selection in yeast, the domain comes from the species named. As to conditions: Homo sapiens.
On to “Scaffold attachment factor B1 L34I, Q15424”, for which the abundance fitness is -0.433 ± 0.096. In the case of “Scaffold attachment factor B1 L34M, Q15424”, the abundance fitness is -0.067 ± 0.083.

The substance “Scaffold attachment factor B1 L34N, Q15424” registered an abundance fitness of -0.496 ± 0.078. For the substance “Scaffold attachment factor B1 L34P, Q15424”, the abundance fitness is -0.619 ± 0.074. “Scaffold attachment factor B1 L34Q, Q15424” showed an abundance fitness of -0.527 ± 0.087. “Scaffold attachment factor B1 L34R, Q15424” registered an abundance fitness of -0.554 ± 0.053.

Regarding “Scaffold attachment factor B1 L34S, Q15424”, the abundance fitness was -0.433 ± 0.065.

The substance “Scaffold attachment factor B1 L34T, Q15424” came in with an abundance fitness of -0.452 ± 0.066. Substance “Scaffold attachment factor B1 L34V, Q15424” displayed an abundance fitness of -0.738 ± 0.058. Then “Scaffold attachment factor B1 L34W, Q15424”, with -0.375 ± 0.075. The result for “Scaffold attachment factor B1 L34Y, Q15424” reads -0.316 ± 0.056; that for “Scaffold attachment factor B1 L39A, Q15424”, -0.556 ± 0.062; that for “Scaffold attachment factor B1 L39C, Q15424”, -0.745 ± 0.074. The result for “Scaffold attachment factor B1 L39D, Q15424” reads -1.12 ± 0.13. The substance “Scaffold attachment factor B1 L39E, Q15424” displayed an abundance fitness of -0.753 ± 0.06.

On to “Scaffold attachment factor B1 L39F, Q15424”, for which the abundance fitness was -0.665 ± 0.089.

On to “Scaffold attachment factor B1 L39G, Q15424”, for which the abundance fitness was -0.814 ± 0.052. Then “Scaffold attachment factor B1 L39H, Q15424”, with -0.766 ± 0.12.

Substance “Scaffold attachment factor B1 L39I, Q15424” came in with an abundance fitness of -0.264 ± 0.1. “Scaffold attachment factor B1 L39K, Q15424” yielded an abundance fitness of -0.996 ± 0.072. Then “Scaffold attachment factor B1 L39M, Q15424”, with -0.304 ± 0.076. Then “Scaffold attachment factor B1 L39N, Q15424”, with -0.87 ± 0.066.

Regarding “Scaffold attachment factor B1 L39P, Q15424”, the abundance fitness is -0.77 ± 0.1. The result for “Scaffold attachment factor B1 L39Q, Q15424” reads -0.764 ± 0.072; that for “Scaffold attachment factor B1 L39R, Q15424”, -0.894 ± 0.05; that for “Scaffold attachment factor B1 L39S, Q15424”, -0.877 ± 0.056. As for “Scaffold attachment factor B1 L39T, Q15424”, the abundance fitness is -0.983 ± 0.091. Take “Scaffold attachment factor B1 L39Y, Q15424”: the abundance fitness is -0.824 ± 0.093.

“Scaffold attachment factor B1 L43A, Q15424” registered an abundance fitness of -0.225 ± 0.066.

“Scaffold attachment factor B1 L43C, Q15424”: the abundance fitness was -0.123 ± 0.068.

On to “Scaffold attachment factor B1 L43D, Q15424”, for which the abundance fitness is -0.858 ± 0.1. The result for “Scaffold attachment factor B1 L43E, Q15424” reads -0.761 ± 0.08; that for “Scaffold attachment factor B1 L43F, Q15424”, -1.21 ± 0.073. The result for “Scaffold attachment factor B1 L43G, Q15424” reads -0.752 ± 0.05; that for “Scaffold attachment factor B1 L43I, Q15424”, -1.02 ± 0.091; that for “Scaffold attachment factor B1 L43K, Q15424”, -0.9 ± 0.095. Take “Scaffold attachment factor B1 L43M, Q15424”: the abundance fitness was -0.402 ± 0.075. Then “Scaffold attachment factor B1 L43N, Q15424”, with -0.936 ± 0.13; and “Scaffold attachment factor B1 L43P, Q15424”, with -1.1 ± 0.11.

On to “Scaffold attachment factor B1 L43Q, Q15424”, for which the abundance fitness was -0.911 ± 0.063.

Turning to “Scaffold attachment factor B1 L43S, Q15424”, the abundance fitness is -0.653 ± 0.059. The result for “Scaffold attachment factor B1 L43V, Q15424” reads -0.714 ± 0.06.

As for “Scaffold attachment factor B1 L43W, Q15424”, the abundance fitness was -1.09 ± 0.083. The result for “Scaffold attachment factor B1 L43Y, Q15424” reads -1.22 ± 0.07. “Scaffold attachment factor B1 L57A, Q15424”: the abundance fitness is -0.462 ± 0.062.

Substance “Scaffold attachment factor B1 L57D, Q15424” gave an abundance fitness of -0.202 ± 0.061. As to “Scaffold attachment factor B1 L57F, Q15424”, the abundance fitness is -1.21 ± 0.1.

As for “Scaffold attachment factor B1 L57G, Q15424”, the abundance fitness is -0.759 ± 0.069. The substance “Scaffold attachment factor B1 L57H, Q15424” displayed an abundance fitness of -0.842 ± 0.1. For “Scaffold attachment factor B1 L57I, Q15424”, the abundance fitness was -0.32 ± 0.077. Then “Scaffold attachment factor B1 L57K, Q15424”, with -0.598 ± 0.088; and “Scaffold attachment factor B1 L57M, Q15424”, with -0.272 ± 0.074; and “Scaffold attachment factor B1 L57N, Q15424”, with -0.521 ± 0.067. “Scaffold attachment factor B1 L57P, Q15424” had an abundance fitness of -0.62 ± 0.074. Then “Scaffold attachment factor B1 L57Q, Q15424”, with -0.527 ± 0.074; and “Scaffold attachment factor B1 L57R, Q15424”, with -0.754 ± 0.054; and “Scaffold attachment factor B1 L57S, Q15424”, with -0.584 ± 0.052. The result for “Scaffold attachment factor B1 L57V, Q15424” reads -0.417 ± 0.065. As for “Scaffold attachment factor B1 L57W, Q15424”, the abundance fitness is -1.37 ± 0.1. Then “Scaffold attachment factor B1 L57Y, Q15424”, with -1.23 ± 0.095.

The substance “Scaffold attachment factor B1 L61C, Q15424” came in with an abundance fitness of -0.41 ± 0.055. Then “Scaffold attachment factor B1 L61D, Q15424”, with -0.615 ± 0.086. The result for “Scaffold attachment factor B1 L61E, Q15424” reads -0.484 ± 0.06; that for “Scaffold attachment factor B1 L61F, Q15424”, -0.299 ± 0.067. Then “Scaffold attachment factor B1 L61G, Q15424”, with -0.511 ± 0.051; and “Scaffold attachment factor B1 L61H, Q15424”, with -0.611 ± 0.085; and “Scaffold attachment factor B1 L61I, Q15424”, with -0.614 ± 0.12.

For “Scaffold attachment factor B1 L61K, Q15424”, the abundance fitness is -0.788 ± 0.12.

“Scaffold attachment factor B1 L61M, Q15424” gave an abundance fitness of -0.336 ± 0.083.

In turn, “Scaffold attachment factor B1 L61N, Q15424” registered an abundance fitness of -0.716 ± 0.13. In turn, “Scaffold attachment factor B1 L61P, Q15424” returned an abundance fitness of -0.583 ± 0.09. Then “Scaffold attachment factor B1 L61R, Q15424”, with -0.644 ± 0.057. With “Scaffold attachment factor B1 L61S, Q15424”, the abundance fitness is -0.508 ± 0.062.

“Scaffold attachment factor B1 L61T, Q15424” yielded an abundance fitness of -0.393 ± 0.078. Then “Scaffold attachment factor B1 L61V, Q15424”, with -0.311 ± 0.065; and “Scaffold attachment factor B1 L61W, Q15424”, with -0.649 ± 0.052. The result for “Scaffold attachment factor B1 L61Y, Q15424” reads -0.351 ± 0.072. Then “Scaffold attachment factor B1 M58A, Q15424”, with -0.224 ± 0.063; and “Scaffold attachment factor B1 M58C, Q15424”, with -0.289 ± 0.083; and “Scaffold attachment factor B1 M58D, Q15424”, with -0.582 ± 0.078. “Scaffold attachment factor B1 M58F, Q15424” yielded an abundance fitness of -0.204 ± 0.075. As for “Scaffold attachment factor B1 M58G, Q15424”, the abundance fitness was -0.368 ± 0.056.

With “Scaffold attachment factor B1 M58H, Q15424”, the abundance fitness was -0.344 ± 0.079. The result for “Scaffold attachment factor B1 M58I, Q15424” reads -0.151 ± 0.071; that for “Scaffold attachment factor B1 M58K, Q15424”, -0.253 ± 0.086.

In turn, “Scaffold attachment factor B1 M58L, Q15424” registered an abundance fitness of -0.106 ± 0.058. On to “Scaffold attachment factor B1 M58N, Q15424”, for which the abundance fitness is -0.37 ± 0.097.

As to “Scaffold attachment factor B1 M58P, Q15424”, the abundance fitness was -0.598 ± 0.1. In turn, “Scaffold attachment factor B1 M58R, Q15424” showed an abundance fitness of -0.205 ± 0.059. The result for “Scaffold attachment factor B1 M58S, Q15424” reads -0.16 ± 0.064. As for “Scaffold attachment factor B1 M58V, Q15424”, the abundance fitness was -0.114 ± 0.064.

For the substance “Scaffold attachment factor B1 M58W, Q15424”, the abundance fitness was -0.439 ± 0.069. Then “Scaffold attachment factor B1 M58Y, Q15424”, with -0.341 ± 0.079. “Scaffold attachment factor B1 N47A, Q15424” registered an abundance fitness of -0.236 ± 0.056. As to “Scaffold attachment factor B1 N47C, Q15424”, the abundance fitness was -0.274 ± 0.073.

As to “Scaffold attachment factor B1 N47D, Q15424”, the abundance fitness was -0.167 ± 0.085.
